The source of these data is the supplement of paper PMC7877785.

This series can be described thus: self-splicing fitness, log relative to wild type (ln ratio); higher = more splicing; Tetrahymena group I intron in knt gene, E. coli kanamycin selection, DiMSum; sequences stand for … in CUCUCU…GGAGGGAAAAGUUAUCAGGCAUGCACCUGGUAGCUAGUCUUUAAACCAAUAGAUUGCAUCGGUUUAAAAGGCAAGACCGUCAAAUUGCGGGAAAGGGGUCAACAGCCGUUCAGUACCAAGUCUCAGGGGAAACUUUGAGAUGGCCUUGCAAAGGGUAUGGUAAUAAGCUGACGGACAUGGUCCUAACCACGCAGCCAAGUCCUAAGUCAACAGAUCUUCUGUUGAUAUGGAUGCAGUUCACAGACUAAAUGUCGGUCGGGGAAGAUGUAUUCUUCUCAUAAGAUAUAGUCGGACCUCUCCUUAAUGGGAGCUAGCGGAUGAAGUGAUGCAACACUGGAGCCGCUGGGAACUAAUUUGUAUGCGAAAGUAUAUUGAUUAGUUUUGGAGUACUCGUGGUCG
Put shortly:
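The eight P1ex-region nucleotides of an intron in the knt kanamycin-resistance gene on pET-22b(+) were all randomised and the library put into E. coli BL21(DE3). Six replicate transformations were grown overnight at 37°C or 30°C on LB agar with or without 25 μg/mL kanamycin, together with 100 μg/mL carbenicillin, 50 μM IPTG and 0.2% rhamnose. Colonies were pooled and amplicon-sequenced on an Illumina HiSeq 2500. Fitness from DiMSum is the error-weighted combination of wild-type-normalised replicate fold changes, kanamycin over none.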

± gives the uncertainty stated by the source.

For UAUCAGCAAUAUUACGCGUC, the “self-splicing fitness (ln)” value reads like this: (30 °C) -2.53 ± 0.11; (37 °C) -0.926 ± 0.12. Turning to AAGCAGCAAUAUUACGUCAC, the “self-splicing fitness (ln)” value was -4.94 ± 0.42 (30 °C) and -2.25 ± 0.3 (37 °C). As for GCAUAGCAAUAUUACGAUCA, the “self-splicing fitness (ln)” value is -2.05 ± 0.34 (30 °C) and 0.131 ± 0.22 (37 °C). The matching figures for CCCUAGCAAUAUUACGACCA: -3.35 ± 0.24 and -3.33 ± 0.27. For GAUAAGCAAUAUUACGGGUG, in that order: -1.09 ± 0.081 and -1.02 ± 0.099.

For the sequence AGGCAGCAAUAUUACGGAUC, the “self-splicing fitness (ln)” value by setting is: (30 °C) -2.19 ± 0.1; (37 °C) -0.495 ± 0.099. For UUGAAGCAAUAUUACGAGGU, in that order: -4.15 ± 0.37 and -1.78 ± 0.22. The matching figures for AACCAGCAAUAUUACGCCCU: 0.309 ± 0.089 and -0.381 ± 0.13. The matching figures for GUAUAGCAAUAUUACGGAGG: -2.94 ± 0.23 and -3.14 ± 0.4. Turning to CGCUAGCAAUAUUACGGGAG, the “self-splicing fitness (ln)” value (30 °C) was -2.79 ± 0.1 and the “self-splicing fitness (ln)” value (37 °C) was -1.43 ± 0.082.

In the case of AGUUAGCAAUAUUACGGCAG, the “self-splicing fitness (ln)” value by setting is: (30 °C) -0.102 ± 0.13; (37 °C) -1.48 ± 0.21. The matching figures for GGAUAGCAAUAUUACGUCUU: -0.966 ± 0.096 and 0.126 ± 0.11. For the sequence ACACAGCAAUAUUACGUCGU, the “self-splicing fitness (ln)” value (30 °C) was -2.67 ± 0.11 and the “self-splicing fitness (ln)” value (37 °C) is -1.58 ± 0.12.

UAAUAGCAAUAUUACGUUCC: for the setting “37 °C”, the “self-splicing fitness (ln)” value is -1.52 ± 0.48. Consider UAUCAGCAAUAUUACGUAGG, for which the “self-splicing fitness (ln)” value was -2.1 ± 0.097 (30 °C) and -1.09 ± 0.088 (37 °C).

Consider GACUAGCAAUAUUACGGGAU, for which the “self-splicing fitness (ln)” value runs as follows: (30 °C) -1.59 ± 0.14; (37 °C) -0.788 ± 0.14. The matching figures for AGGCAGCAAUAUUACGGGUU: -3.33 ± 0.22 and -1.01 ± 0.12. The matching figures for GUCGAGCAAUAUUACGACAA: -1.97 ± 0.24 and -2.85 ± 0.4.

Take AUGUAGCAAUAUUACGACUG: the “self-splicing fitness (ln)” value is, setting by setting: (30 °C) -0.943 ± 0.1; (37 °C) -0.461 ± 0.1. For the sequence CGUUAGCAAUAUUACGGUUU, the “self-splicing fitness (ln)” value (30 °C) was -3.84 ± 0.34 and the “self-splicing fitness (ln)” value (37 °C) is -2.44 ± 0.21. For UUUGAGCAAUAUUACGAGGA, in that order: -3.62 ± 0.28 and -3.55 ± 0.46.

Regarding CUUAAGCAAUAUUACGUCAA, the “self-splicing fitness (ln)” value is, setting by setting: (30 °C) -3.38 ± 0.35; (37 °C) -2.33 ± 0.21. The matching figures for CAAGAGCAAUAUUACGCGUU: -3.61 ± 0.22 and -3.05 ± 0.25. For CCCCAGCAAUAUUACGUCCU, in that order: -2.36 ± 0.17 and -2.14 ± 0.22. Regarding GACGAGCAAUAUUACGAAGU, the “self-splicing fitness (ln)” value (30 °C) is -3.26 ± 0.22 and the “self-splicing fitness (ln)” value (37 °C) is -2.57 ± 0.26. As to GAGCAGCAAUAUUACGGGAG, the “self-splicing fitness (ln)” value was -3.68 ± 0.32 (30 °C) and -2.9 ± 0.35 (37 °C). For the sequence AUGGAGCAAUAUUACGACCU, the “self-splicing fitness (ln)” value reads like this: (30 °C) -0.472 ± 0.14; (37 °C) 0.103 ± 0.18. The matching figures for CAAGAGCAAUAUUACGUCAG: -3.25 ± 0.16 and -0.429 ± 0.11. The matching figures for GACUAGCAAUAUUACGGAAC: -1.61 ± 0.12 and -1.15 ± 0.17. The matching figures for GGACAGCAAUAUUACGUUCU: -2.91 ± 0.12 and -2.45 ± 0.18. Turning to CAUUAGCAAUAUUACGGACA, the “self-splicing fitness (ln)” value was -2.45 ± 0.22 (30 °C) and -1.22 ± 0.18 (37 °C). For AAGCAGCAAUAUUACGUAAU, in that order: -1.49 ± 0.068 and -0.923 ± 0.094. For UACGAGCAAUAUUACGUUGC, in that order: -3.28 ± 0.32 and -2.18 ± 0.33. CCUAAGCAAUAUUACGUCGU: the “self-splicing fitness (ln)” value (30 °C) is -3.14 ± 0.39 and the “self-splicing fitness (ln)” value (37 °C) is -2.08 ± 0.19. For AUAAAGCAAUAUUACGAGGU, in that order: -3.99 ± 0.16 and -1.9 ± 0.21. Consider AUUCAGCAAUAUUACGCCUA, for which the “self-splicing fitness (ln)” value (30 °C) is -0.46 ± 0.12 and the “self-splicing fitness (ln)” value (37 °C) was -0.501 ± 0.13. The matching figures for GCCCAGCAAUAUUACGGGCC: -3.22 ± 0.13 and -2.58 ± 0.26. Regarding GCGCAGCAAUAUUACGUAGG, the “self-splicing fitness (ln)” value (30 °C) was -0.838 ± 0.061 and the “self-splicing fitness (ln)” value (37 °C) was -0.551 ± 0.086. Turning to UUCAAGCAAUAUUACGCCUG, where the note is “37 °C”, the “self-splicing fitness (ln)” value was -1.64 ± 0.34. For CCGAAGCAAUAUUACGAGGG, the “self-splicing fitness (ln)” value is, setting by setting: (30 °C) -3 ± 0.18; (37 °C) -1.73 ± 0.22. For AUAAAGCAAUAUUACGGCAA, in that order: 0.284 ± 0.085 and -0.0372 ± 0.11. Consider AGUAAGCAAUAUUACGGUAU, for which the “self-splicing fitness (ln)” value (30 °C) was -2.52 ± 0.17 and the “self-splicing fitness (ln)” value (37 °C) was -1.35 ± 0.13.

As to AUACAGCAAUAUUACGGACU, the “self-splicing fitness (ln)” value (30 °C) was -0.732 ± 0.06 and the “self-splicing fitness (ln)” value (37 °C) was 0.141 ± 0.09. The matching figures for ACUAAGCAAUAUUACGCCGA: -1.86 ± 0.18 and -0.197 ± 0.16. The matching figures for GAGGAGCAAUAUUACGCGUA: -2.97 ± 0.27 and -1.6 ± 0.37.

Take AGCGAGCAAUAUUACGUCGA: the “self-splicing fitness (ln)” value runs as follows: (30 °C) -2.82 ± 0.27; (37 °C) -2.3 ± 0.28. The matching figures for GCCGAGCAAUAUUACGGAAG: -2.65 ± 0.23 and -0.897 ± 0.15. The matching figures for CCUCAGCAAUAUUACGUGUU: -4.12 ± 0.2 and -3.41 ± 0.25. Take CAUCAGCAAUAUUACGAGGG: the “self-splicing fitness (ln)” value reads like this: (30 °C) -2.04 ± 0.13; (37 °C) -0.928 ± 0.12. For the sequence AAACAGCAAUAUUACGCCAG, the “self-splicing fitness (ln)” value was -4.93 ± 0.39 (30 °C) and -2.11 ± 0.22 (37 °C). Regarding AUUUAGCAAUAUUACGUAGA, the “self-splicing fitness (ln)” value is -2.08 ± 0.15 (30 °C) and -2.48 ± 0.23 (37 °C). The matching figures for AGACAGCAAUAUUACGAACC: -0.535 ± 0.12 and -0.29 ± 0.19. UUGUAGCAAUAUUACGUUGA: the “self-splicing fitness (ln)” value is, setting by setting: (30 °C) -2.95 ± 0.29; (37 °C) -0.294 ± 0.19. For CGUGAGCAAUAUUACGCUUG, in that order: -2.56 ± 0.11 and -2.07 ± 0.13. For GGGGAGCAAUAUUACGACAU, in that order: -2.17 ± 0.022 and -1.15 ± 0.037.

As to UGACAGCAAUAUUACGAAUC, the “self-splicing fitness (ln)” value is, setting by setting: (30 °C) -3.49 ± 0.37; (37 °C) -1.68 ± 0.31. Turning to ACGAAGCAAUAUUACGCACU, the “self-splicing fitness (ln)” value (30 °C) was -0.656 ± 0.094 and the “self-splicing fitness (ln)” value (37 °C) was -0.172 ± 0.11. For UAACAGCAAUAUUACGACCA, in that order: -0.808 ± 0.08 and 0.224 ± 0.11. For CGCGAGCAAUAUUACGGGGG, in that order: -3.45 ± 0.38 and -3.07 ± 0.32. The matching figures for GAGUAGCAAUAUUACGACUA: 0.106 ± 0.14 and -0.537 ± 0.13. For the sequence UAACAGCAAUAUUACGGCGA, the “self-splicing fitness (ln)” value reads like this: (30 °C) -0.267 ± 0.077; (37 °C) -0.198 ± 0.08. Regarding ACGCAGCAAUAUUACGUCCC, the “self-splicing fitness (ln)” value (37 °C) is -0.268 ± 0.48. For the sequence GUCCAGCAAUAUUACGAAAG, the “self-splicing fitness (ln)” value is, setting by setting: (30 °C) -3.37 ± 0.21; (37 °C) -0.318 ± 0.17. For UGGGAGCAAUAUUACGGCGG, in that order: -2.86 ± 0.4 and -1.23 ± 0.46.

In the case of AGCCAGCAAUAUUACGGAGG, the “self-splicing fitness (ln)” value (30 °C) was -3.01 ± 0.14 and the “self-splicing fitness (ln)” value (37 °C) is -1.8 ± 0.26. For CCAAAGCAAUAUUACGGUCC, in that order: -4.23 ± 0.46 and -2.13 ± 0.3.

As to CAGUAGCAAUAUUACGCCAU, the “self-splicing fitness (ln)” value is -0.742 ± 0.18 (30 °C) and -2.87 ± 0.47 (37 °C). For UGCUAGCAAUAUUACGUUUA, in that order: -3.11 ± 0.19 and -1.27 ± 0.12. For GAUAAGCAAUAUUACGAACG, in that order: -1.22 ± 0.14 and -0.754 ± 0.17. Consider UAGAAGCAAUAUUACGUGGU, for which the “self-splicing fitness (ln)” value (30 °C) was -3.52 ± 0.2 and the “self-splicing fitness (ln)” value (37 °C) was -2.54 ± 0.18. As to AUUGAGCAAUAUUACGGGCU, the “self-splicing fitness (ln)” value runs as follows: (30 °C) -4.12 ± 0.36; (37 °C) -2.25 ± 0.42. The matching figures for AAGAAGCAAUAUUACGGCUU: -2.42 ± 0.14 and -3.23 ± 0.24.

On to GUGAAGCAAUAUUACGGUGA, for which the “self-splicing fitness (ln)” value is, setting by setting: (30 °C) -0.922 ± 0.11; (37 °C) 0.58 ± 0.14. The matching figures for CAAUAGCAAUAUUACGAGAC: -4.17 ± 0.36 and -2.1 ± 0.27. The matching figures for UGGAAGCAAUAUUACGAAGC: -3.64 ± 0.35 and -2.35 ± 0.36.

As for UUGUAGCAAUAUUACGAGAG, the “self-splicing fitness (ln)” value (30 °C) was -2.07 ± 0.3.
